Source: patent US6855270B2, “Nanoscintillation systems for aqueous-based liquid scintillation counting” (The University of Kentucky Research Foundation, priority 2001, dated 2005)

Experiments:
[1] = particle / droplet size by photon correlation spectroscopy (Coulter N4 Plus); format: physicochemical
Experimental: To determine the existence of an oil-in-water microemulsion window for the microemulsion precursor, exactly two (2) milligrams of emulsifying wax were weighed accurately into ten separate 7-mL glass vials and melted at 50° C. on a temperature calibrated magnetic hot plate. Water (0.2 μm filtered) was then added (750-1000 μL) to form a homogeneous milky slurry in the stirring water at 50° C. To form the microemulsion precursor, the surfactant polyoxy 20 stearyl ether (100 mM) in water was added (0-250 μL) so that the final surfactant concentration ranged from 0 mM to 25 mM in the ten vials. The microemulsion precursor was then removed from heat (52-54° C.) and allowed to cool to 25° C. while stirring. […] Thus, an apparent microemulsion window was defined. One hundred (100) μL of each cooled system was taken and diluted with 900 μL water. The particle size of the diluted solid nanoparticles was determined using a Coulter N4 Plus Sub-Micron Particle Sizer at 20° C. by scattering light at 90° for 120 seconds. The particle sizes of systems with no surfactant added could not be determined since the systems contained precipitates that were greater than 3000 nm in diameter. […] To determine if the measured droplet sizes in either the microemulsion nanotemplate or the cured solid nanoparticles were due to the presence of surfactant micelles, samples were made as described above with no emulsifying wax and with final surfactant concentrations ranging from 0 mM to 100 mM in water. […] It is likely that the relatively heterogeneous nature of the polymeric surfactant makes the determination of its CMC difficult using conventional techniques. Photon correlation spectroscopy, using a Coulter N4 Plus Submicron Particle Sizer, was used to determine the existence and the size of the surfactant micelles.
Preparation of polyoxyethylene 2 stearyl ether nanoparticles. Three separate samples of polyoxyethylene 2 stearyl ether nanoparticles were engineered using the following process. Polyoxyethylene 2 stearyl ether (2 mg) was melted at 50-55° C. and dispersed in 970 microliters of water at the same temperature. Thirty microliters of solution of Tween 80 (10% v/v in water) was added to produce a clear oil-in-water microemulsion at approximately 55° C. The oil droplet size of liquid polyoxyethylene 2 stearyl ether was measured by photon correlation spectroscopy to be 22.2±1.8 nanometers at approximately 55° C. Polyoxyethylene 2 stearyl ether nanoparticles were cured by three different methods as follows: Method A) cooling of the undiluted oil-in-water microemulsion at 55° C. to room temperature while stirring, Method B) cooling of the oil-in-water microemulsion at 55° C. by placing undiluted in a refrigerator at 4° C., and Method C) diluting (1/10) the oil-in-water microemulsion at 55° C. with water at 4° C. […] Further, Method A illustrated a key advantage of simply allowing the oil-in-water microemulsion to cool to room temperature to form useful solid nanoparticles. This method allows for rapid, reproducible, and cost-effective method to engineer useful nanoparticles.
Preparation of Emulsifying Wax nanoparticles. Three separate samples of emulsifying wax nanoparticles were engineered using the following process. Emulsifying wax (2 mg) was melted at 50-55° C. and dispersed in 970 microliters of water at the same temperature. […] The oil droplet size of liquid emulsifying wax was measured by photon correlation spectroscopy to be 24.5±0.4 nanometers at approximately 55° C. […]

[2] = cited from earlier work
[3] = ASF-pal alone in water, 1340 μg/mL

For `CC(=O)C=C(C)[O-].CC(=O)C=C(C)[O-].CC(=O)C=C(C)[O-].[Gd+3]` [GdAcAc, Gadolinium acetylacetonate], the “diameter of nanoparticles entrapping GdAcAc” value [1] was “about 50 nanometers”.
In the case of `c1ccc(-c2cnc(-c3ccccc3)o2)cc1` [PPO, 2,5-diphenyloxazole], the “classification of water solubility” value [2] is listed as “water-insoluble”.
For “ASF-pal: Asialofetuin derivatized with about 12 palmitate arms per molecule; ligand”, the “effect of added ASF-pal on particle size of cured solid nanoparticles” value ([1]; 200 μg nanoparticles per 1 mL) was “only a small effect”, the “size of micelles formed” value ([1]; ASF-pal alone in water, 67 μg/mL) was 3-15 nm and the “size of larger aggregates formed” value [1, 3] was 40-300 nm. The “size of micelles formed” value [1, 3] was 3-10 nm.
